Experimental data taken from patent US20250313637A1 (DREN BIO MANAGEMENT, published 2025).

T1: human Dectin-1 expressed by HEK-Blue hDectin-1-a cells (human, UniProt Q9BXN2 1-247)
T1 sequence: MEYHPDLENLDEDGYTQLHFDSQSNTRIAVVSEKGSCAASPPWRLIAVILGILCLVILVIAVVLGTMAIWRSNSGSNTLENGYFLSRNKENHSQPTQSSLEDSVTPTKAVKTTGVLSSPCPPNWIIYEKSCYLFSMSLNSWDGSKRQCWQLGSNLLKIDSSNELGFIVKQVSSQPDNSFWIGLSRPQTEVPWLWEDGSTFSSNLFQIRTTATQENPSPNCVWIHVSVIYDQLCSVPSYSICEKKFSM

T2: CD20 expressed on Raji cells (UniProt P11836 1-297, limits assumed)
T2 construct: whole, on cells; also called CD20-expressing Raji cells; CD20-expressing B cell lymphoma Raji cell line
T2 sequence (looked up): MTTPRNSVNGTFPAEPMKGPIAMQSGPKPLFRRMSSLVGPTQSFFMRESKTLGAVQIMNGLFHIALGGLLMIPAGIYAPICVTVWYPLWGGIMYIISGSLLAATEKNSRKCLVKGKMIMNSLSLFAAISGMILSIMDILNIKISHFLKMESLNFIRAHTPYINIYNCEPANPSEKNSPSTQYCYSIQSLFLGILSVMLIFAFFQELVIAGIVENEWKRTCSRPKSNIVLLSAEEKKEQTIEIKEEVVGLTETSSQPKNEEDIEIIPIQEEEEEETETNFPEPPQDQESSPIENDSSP


Tests used:
[1] = target: T1, human Dectin-1 expressed by HEK-Blue …; experiment: cell-based or functional assay
[2] = target: T2, CD20 expressed on Raji cells; experiment: flow cytometry on CD20-expressing Raji cells
Description: To evaluate the effect of the 2M24xCD20 bispecific antibody on cells, its binding affinity for cells expressing Dectin-1 or CD20 was measured. Two different formats were used to drive heavy:light chain pairing and bispecific antibody assembly: the DuetMab format with engineered disulfide bonds (see Mazor, Y. et al. (2015) MAbs 7:377-389) (“2M24xCD20 hG1 Duet”) and the M-Fab format described herein (see, e.g., FIG. 3) (“2M24xCD20 hG1M”), as compared to monospecific anti-CD20 with hG1 Fc. Binding of the bispecific 2M24xCD20 antibodies to Dectin-1-expressing HEK293 cells was assessed by flow cytometry (FIG. 7A). Both M-Fab and DuetMab formats were able to bind cells expressing Dectin-1 with similar affinities. Binding of the bispecific 2M24xCD20 antibodies to cells expressing CD20 was also assessed by flow cytometry, using the CD20-expressing B cell lymphoma Raji cell line (FIG. 7B). Both M-Fab and DuetMab were able to bind cells expressing CD20 with similar affinities, but with reduced affinity compared to the parental monospecific anti-CD20 antibody.

SEAP reporter assay EC50, in presence of CHO cells (~2 million copies/cell) [1] | SEAP reporter assay EC50, in presence of H2170 cells expressing Trop2 (~136,000 copies/cell) [1] | SEAP reporter assay EC50, in presence of HeLa cells expressing Trop2 (~25,500 copies/cell) [1] | SEAP reporter assay, fold shift in EC50 against traditional bispecific, CHO cells [1] | SEAP reporter assay, fold shift in EC50 against traditional bispecific, H2170 cells [1] | SEAP reporter assay, fold shift in EC50 against traditional bispecific, HeLa cells [1] | SEAP reporter assay EC50 (OD630), HEK-Blue hDectin-1-a cells co-cultured with CD20-expressing Raji cells, Exp. 1 [1] | SEAP reporter assay EC50 (OD630), HEK-Blue hDectin-1-a cells co-cultured with CD20-expressing Raji cells, Exp. 2 [1] | binding result [2] | Binder
0.13 nM | 0.17 nM | 0.37 nM | 9.8 fold | 47.6 fold | 4.7 fold | – | – | – | 2+1 M-Fab (2M24xTrop2 hIgG1) bispecific antibody (bispecific antibody) heavy 1: not shown light 1: not shown heavy 2: not shown light 2: DIVLTQSPGTLSLSPGERATLSCRASQSVSSSYLAWYQQKPGQAPRLLISGASSRATGIPDRFSGSGSGTDFTLTISRLEPEDFAVYYCQQYGSSHRTFGQGTKVEIKRTVALHRPDVYLLPPAREQLNLRESATIWCLVTGFSPADVFVQWMQRGQPLSPEKYVTSAPMPEPQAPGRYFAHSILTVSEEEWNTGETYTCVVAHEALPNRVTERTVDKSTGES
– | – | – | – | – | – | 3.65 nM | 3.53 nM | – | M-Fab 2M24xCD20 bispecific antibody (2M24xCD20 hG1M) (bispecific antibody, human IgG1, kappa) heavy 1: not shown light 1: DIQMTQSPSSVSASVGDRVTITCRASQGISSWLAWYQQKPGKAPKLLIFGASSLQSGVPSRFSGSGSGTDFTLTVSSLQPEDFATYYCQQAYSFPFTFGPGTKVDIERTVALHRPDVYLLPPAREQLNLRESATIWCLVTGFSPADVFVQWMQRGQPLSPEKYVTSAPMPEPQAPGRYFAHSILTVSEEEWNTGETYTCVVAHEALPNRVTERTVDKSTGEC heavy 2: QVQLQQPGAELVKPGASVKMSCKASGYTFTSYNMHWVKQTPGRGLEWIGAIYPGNGDTSYNQKFKGKATLTADKSSSTAYMQLSSLTSEDSAVYYCARSTYYGGDWYFNVWGAGTTVTVSAASTKGPSVFPLAPSSKSTSGGTAALGCLVKDYFPEPVTVSWNSGALTSGVHTFPAVLQSSGLYSLSSVVTVPSSSLGTQTYICNVNHKPSNTKVDKKVEPKSCDKTHTCPPCPAPELLGGPSVFLFPPKPKDTLMISRTPEVTCVVVDVSHEDPEVKFNWYVDGVEVHNAKTKPREEQYNSTYRVVSVLTVLHQDWLNGKEYKCKVSNKALPAPIEKTISKAKGQPREPQVYTLPPSREEMTKNQVSLSCAVKGFYPSDIAVEWESNGQPENNYKTTPPVLDSDGSFFLVSKLTVDKSRWQQGNVFSCSVMHEALHNRFTQKSLSLSPG light 2: QIVLSQSPAILSASPGEKVTMTCRASSSVSYIHWFQQKPGSSPKPWIYATSNLASGVPVRFSGSGSGTSYSLTISRVEAEDAATYYCQQWTSNPPTFGGGTKLEIKRTVAAPSVFIFPPSDEQLKSGTASVVCLLNNFYPREAKVQWKVDNALQSGNSQESVTEQDSKDSTYSLSSTLTLSKADYEKHKVYACEVTHQGLSSPVTKSFNRGEC
– | – | – | – | – | – | 2.63 nM | 3.19 nM | binds | DuetMab 2M24xCD20 bispecific antibody (2M24xCD20 hG1 Duet) (bispecific antibody, V domains shown, Human IgG1 in the DuetMab format with engineered disulfide bonds (Mazor 2015)) VH 1: QVQLVQSGAEVKKPGASVKVSCKSSGYTFTDYYIHWVRQAPGQGLEWMGWINPNSGDTNYAQKFQGRITMTRDTSISTAYLELSRLRSDDTAVFYCARNSGSYSFGYWGQGTLVTVSS VL 1: DIQMTQSPSSVSASVGDRVTITCRASQGISSWLAWYQQKPGKAPKLLIFGASSLQSGVPSRFSGSGSGTDFTLTVSSLQPEDFATYYCQQAYSFPFTFGPGTKVDIE VH 2: QVQLQQPGAELVKPGASVKMSCKASGYTFTSYNMHWVKQTPGRGLEWIGAIYPGNGDTSYNQKFKGKATLTADKSSSTAYMQLSSLTSEDSAVYYCARSTYYGGDWYFNVWGAGTTVTVSA VL 2: QIVLSQSPAILSASPGEKVTMTCRASSSVSYIHWFQQKPGSSPKPWIYATSNLASGVPVRFSGSGSGTSYSLTISRVEAEDAATYYCQQWTSNPPTFGGGTKLEIK
